Laboratory results as given in the supplement of paper PMC11780869.

System: Bacillus subtilis
Experiment: cleaved RNA product abundance (RNA/gDNA barcode ratio) relative to median wild-type variant (ratio to wild type); higher = more accumulation of the downstream cleavage product
Summary of the method: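 Sequencing of barcodes from gel-selected, reverse-transcribed cleaved RNA and from genomic DNA, with UMI collapsing, yielded a per-construct RNA:gDNA ratio. Scaled to the median construct with the unmutated site, this ratio is the cleaved product abundance. The barcoded reporters (truncated aprE or tetM mRNAs with mutagenized RNase Y cleavage-site windows) were integrated into the B. subtilis chromosome, and cultures grew in LB at 37°C from OD600 0.0003 to 0.3.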

[1] = experiment (reporter, strain, medium): exp 4a: truncated aprE reporter, strain BJT201 with 2% xylose (RNase J1 expressed), cleavage site: cggR-gapA (positions -7 to +36 mutated)
[2] = experiment (reporter, strain, medium): exp 8a: truncated aprE reporter, strain BJT201 with 2% xylose (RNase J1 expressed), cleavage site: glnRA (positions -5 to +31 mutated)
[3] = experiment (reporter, strain, medium): exp 2b: truncated aprE reporter, strain BJT200, cleavage site: cggR-gapA (positions -7 to +36 mutated)
[4] = experiment (reporter, strain, medium): exp 6: tetM reporter, strain 168, cleavage site: cggR-gapA (positions -7 to +36 mutated)

Sequence: ACAGACGAAGGAGCCGCAAAGAAGTTATTAACGAATTAATAATCCCTCAATATAAATATCTCTCACTTATTTAAA
- cleaved RNA product abundance [1]: 0.0842

Sequence: CGACATGTCCCGCTTCTTTCATTAAACCGTTAGCAACTGTTTCGCTATATACATTTACCTTTTAAGAGGAGGAAT
- cleaved RNA product abundance [2]: 0.164

Sequence: ACAGACGAAGGAGCCGCAAAGAAGTTATAAAGGGATTAATAATCCCTCAATATAAATATCTCTCACTTATTTAAA
- cleaved RNA product abundance [3]: 0.333
- cleaved RNA product abundance [1]: 0.362

Sequence: ACAGACGAAGGAGCCGCAAAGAAGTAATTAAGGGATGAATAATCCCTCCATATAAATATCTCTCACTTATTTAAA
- cleaved RNA product abundance [1]: 0.0749

Sequence: CGACATGTCCCGCTTCTTTCATTAATACGTTAGCAACTGTTTTGCTATTTACATTTACCTTTTAAGAGGAGGAAT
- cleaved RNA product abundance [2]: 0.232

Sequence: CGACATGTCCCGCTTCTTTCATTAATCCGTTAGCAACTGTTTGGCTATATACATTTACCTTTTAAGAGGAGGAAT
- cleaved RNA product abundance [2]: 0.493

Sequence: ACAGACGAAGGAGCCGCAATGAAGTTATTAAGAGATGAATAATCCCTCAATATAAATATCTCTCACTTATTTAAA
- cleaved RNA product abundance [3]: 0.131
- cleaved RNA product abundance [1]: 0.204

Sequence: ACAGACGAAGGAGCCGCATAGAAGTTATTAAGGGATGAATAATCCATCAATATAAATATCTCTCACTTATTTAAA
- cleaved RNA product abundance [3]: 0.112
- cleaved RNA product abundance [1]: 0.245

Sequence: CGACATGTCCCGCTTCTTTCATTAATCCGTTAGCAACTGATTTGATATATACATTTACCTTTTAAGAGGAGGAAT
- cleaved RNA product abundance [2]: 0.463

Sequence: ACAGACGAAGGAGCCGCAACGAAGTTATTAAGGGATGTATAATCCCTCAATATAAATATCTCTCACTTATTTAAA
- cleaved RNA product abundance [1]: 0.656

Sequence: CGACATGTCCCGCTTCTTTCATTAATCCGTTAGCAACGGTTTTGTTATATACATTTACCTTTTAAGAGGAGGAAT
- cleaved RNA product abundance [2]: 0.364

Sequence: CGACATGTCCCGCTTCTTTCATTAATCCTTTAGCAACTGTTTTGCTATATACATTTACCTTTTAAGAGGAGGAAT
- cleaved RNA product abundance [2]: 0.612

Sequence: ACAGACGAAGGAGCCGCAAAGAAGTTATTATGGGATGAATAATCCCTCAATTTAAATATCTCTCACTTATTTAAA
- cleaved RNA product abundance [1]: 0.169

Sequence: ACAGACGAAGGAGCCGCAAAGAAGTTATTAAGGGATGAATAATCCCTTAATATAAATATCTCTCACTTATTTAAA
- cleaved RNA product abundance [3]: 0.782
- cleaved RNA product abundance [1]: 0.595
- cleaved RNA product abundance [4]: 0.623

Sequence: CGACATGTCCCGCTTCTTTCATTAATCGGTTAGCAACTGTTTTGCAATATACATTTACCTTTTAAGAGGAGGAAT
- cleaved RNA product abundance [2]: 0.349

Sequence: CGACATGTCCCGCTTCTTTCATTACTCCGTTAGCAACTGTTTTGGTATATACATTTACCTTTTAAGAGGAGGAAT
- cleaved RNA product abundance [2]: 0.278

Sequence: ACAGACGAAGGAGCCGCAAAGGAGTTTTTAAGGGATGAATAATCCCTCAATATAAATATCTCTCACTTATTTAAA
- cleaved RNA product abundance [1]: 0.369

Sequence: CGACATGTCCCGCTTCTTTCATTAATCCGTGAGCAGCTGTTTTGCTATATACATTTACCTTTTAAGAGGAGGAAT
- cleaved RNA product abundance [2]: 0.231

Sequence: ACAGACGAAGGAGCCGCACAGAAGTTATTAAGGGATGAATAATCACTCAATATAAATATCTCTCACTTATTTAAA
- cleaved RNA product abundance [1]: 0.125

Sequence: ACAGACGAAGGAGCCGCAAAAAAGTTATTAAGGGATGAATAATCCCTCAGTATAAATATCTCTCACTTATTTAAA
- cleaved RNA product abundance [3]: 0.266
- cleaved RNA product abundance [1]: 0.42

Sequence: ACAGACGAAGGAGCCGCAAAAAAGTTATTATGGGATGAATAATCCCTCAATATAAATATCTCTCACTTATTTAAA
- cleaved RNA product abundance [3]: 0.323
- cleaved RNA product abundance [1]: 0.334

Sequence: ACAGACGAAGGAGCCGCAAAGAAGTTATTAAAGGATGAATAATCCCTCAGTATAAATATCTCTCACTTATTTAAA
- cleaved RNA product abundance [1]: 0.122

Sequence: ACAGACGAAGGAGCCGCAAAGAAGTTATTAAGGTATGAATAATCCCACAATATAAATATCTCTCACTTATTTAAA
- cleaved RNA product abundance [3]: 0.0792
- cleaved RNA product abundance [1]: 0.0978

Sequence: ACAGACGAAGGAGCCGCAAAGAAGTTATTAAGGGATAAATAATCCCTCGATATAAATATCTCTCACTTATTTAAA
- cleaved RNA product abundance [1]: 0.433

Sequence: ACAGACGAAGGAGCCGCAATGAAGTTATTAAGGTATGAATAATCCCTCAATATAAATATCTCTCACTTATTTAAA
- cleaved RNA product abundance [3]: 0.109
- cleaved RNA product abundance [1]: 0.146

Sequence: ACAGACGAAGGAGCCGCAAAGAAGTTATTAAGGAATAAATAATCCCTCAATATAAATATCTCTCACTTATTTAAA
- cleaved RNA product abundance [3]: 0.0901
- cleaved RNA product abundance [1]: 0.0868

Sequence: CGACATGTCCCGCTTCTTTCATTAATCCGTTAGCAATTGTTTTGCTATATACAATTACCTTTTAAGAGGAGGAAT
- cleaved RNA product abundance [2]: 1.24

Sequence: ACAGACGAAGGAGCCGCAAAGAAGTTATTAAGGGATAAATAATCACTCAATATAAATATCTCTCACTTATTTAAA
- cleaved RNA product abundance [3]: 0.0853
- cleaved RNA product abundance [1]: 0.104

Sequence: ACAGACGAAGGAGCCGCACAGAAGTTATTAAGGGATGAATAATCCCTAAATATAAATATCTCTCACTTATTTAAA
- cleaved RNA product abundance [1]: 0.586

Sequence: ACAGACGAAGGAGCCGCAAAGAAGTTATTAAGAGATGAATAATTCCTCAATATAAATATCTCTCACTTATTTAAA
- cleaved RNA product abundance [3]: 0.0877
- cleaved RNA product abundance [1]: 0.106

Sequence: ACAGACGAAGGAGCCGCAAAGAAGTTATTAAGGGATGAATAACCTCTCAATATAAATATCTCTCACTTATTTAAA
- cleaved RNA product abundance [1]: 0.151

Sequence: ACAGACGAAGGAGCCGCAAAGAAGTTATTATGTGATGAATAATCCCTCAATATAAATATCTCTCACTTATTTAAA
- cleaved RNA product abundance [1]: 0.131

Sequence: ACAGACGAAGGAGCCGCAAAGAAGTTATTAAGGGTTGAATAATCCATCAATATAAATATCTCTCACTTATTTAAA
- cleaved RNA product abundance [1]: 0.205

Sequence: ACAGACGAAGGAGCCGCAACGAAGTTATTAAGGGTTGAATAATCCCTCAATATAAATATCTCTCACTTATTTAAA
- cleaved RNA product abundance [1]: 0.508

Sequence: ACAGACGAAGGAGCCGCAAAGAAGGTATTAAGGGATGAATAATCCCTCAATATAAATATCTCTCACTTATTTAAA
- cleaved RNA product abundance [3]: 1.51
- cleaved RNA product abundance [1]: 1.18
- cleaved RNA product abundance [4]: 0.983

Sequence: ACAGACGAAGGAGCCGCAAAGAAGTTATTAAGGCATGAATAATCCCTCATTATAAATATCTCTCACTTATTTAAA
- cleaved RNA product abundance [3]: 0.0915
- cleaved RNA product abundance [1]: 0.0852

Sequence: ACAGACGAAGGAGCCGCAAAGAAGATATTAAGGGATGAATAATCCCTGAATATAAATATCTCTCACTTATTTAAA
- cleaved RNA product abundance [1]: 0.583

Sequence: ACAGACGAAGGAGCCGCAAAGAACTTATTAAGGGATGAATAATCCCTCAATATAAACATCTCTCACTTATTTAAA
- cleaved RNA product abundance [1]: 0.348

Sequence: ACAGACGAAGGAGCCGCAAAGAAGTTATTAAGGGATGTATAATCCCTCAATTTAAATATCTCTCACTTATTTAAA
- cleaved RNA product abundance [3]: 0.218
- cleaved RNA product abundance [1]: 0.146

Sequence: CGACATGTCCCGCTTCTTTCATTAATCCGTTAGCAACTGCTTTGCTGTATACATTTACCTTTTAAGAGGAGGAAT
- cleaved RNA product abundance [2]: 0.106

Sequence: ACAGACGAAGGAGCCGCAAAGAAATTATTAAGGGGTGAATAATCCCTCAATATAAATATCTCTCACTTATTTAAA
- cleaved RNA product abundance [3]: 0.541
- cleaved RNA product abundance [1]: 0.734

Sequence: CGACATGTCCCGCTTCTTTCATTAATCCGTTAGCCACTGTTTTGTTATATACATTTACCTTTTAAGAGGAGGAAT
- cleaved RNA product abundance [2]: 0.247

Sequence: CGACATGTCCCGCTTCTTTCATTAATCCGTTAGCTACTGTTTTGCTATATACATTTAACTTTTAAGAGGAGGAAT
- cleaved RNA product abundance [2]: 0.621

Sequence: ACAGACGAAGGAGCCGCAAAGAAGTTATTAAGGGATGCATAATCCCTCAATTTAAATATCTCTCACTTATTTAAA
- cleaved RNA product abundance [3]: 0.177

Sequence: ACAGACGAAGGAGCCGCAATGAAATTATTAAGGGATTAATAATCCCTCAATATAAATATCTCTCACTTATTTAAA
- cleaved RNA product abundance [1]: 0.695

Sequence: ACAGACGAAGGAGCCGCAAAGAAGTTATTAAGAGATGAATAATCCCTCAATATACATATCTCTCACTTATTTAAA
- cleaved RNA product abundance [3]: 0.102
- cleaved RNA product abundance [1]: 0.136

Sequence: ACAGACGAAGGAGCCGCAAAAAAGTTATTAAGGTATGAATAATCCATCAATATAAATATCTCTCACTTATTTAAA
- cleaved RNA product abundance [1]: 0.23

Sequence: ACAGACGAAGGAGCCGCAAAGAAGTTATTTAGGGATGAATAATCCCTCAATATACATATCTCTCACTTATTTAAA
- cleaved RNA product abundance [1]: 0.312

Sequence: ACAGACGAAGGAGCCGCAAAGAAGTTATTAAGGGATGAATAATCTCTCAAAATAAATATCTCTCACTTATTTAAA
- cleaved RNA product abundance [3]: 0.283
- cleaved RNA product abundance [1]: 0.283

Sequence: ACAGACGAAGGAGCCGCAAAGAAGTTATTAAGGGATGAACAATCCCTCAACATAAATATCTCTCACTTATTTAAA
- cleaved RNA product abundance [1]: 0.265

Sequence: CGACATGTCCCGCTTCTTTCATTAATCCGATAGCAACTCTTTTGCTATATACATTTACCTTTTAAGAGGAGGAAT
- cleaved RNA product abundance [2]: 0.19

Sequence: ACAGACGAAGGAGCCGCAAAGAATTTATTAAGGGATGAATACTCCCTCAATATAAATATCTCTCACTTATTTAAA
- cleaved RNA product abundance [3]: 0.404
- cleaved RNA product abundance [1]: 0.583

Sequence: ACAGACGAAGGAGCCGCAAATAAGTTATAAAGGGATGTATAATCCCTCAATATAAATATCTCTCACTTATTTAAA
- cleaved RNA product abundance [3]: 0.384

Sequence: CGACATGTCCCGCTTCTTTCATTAATCCATTTGCAACTGTTTTGCTATATACATTTACCTTTTAAGAGGAGGAAT
- cleaved RNA product abundance [2]: 0.236

Sequence: ACAGACGAAGGAGCCGCAAAGAACTTATTAAGGGATGAATGATCCCTCAATATAAATATCTCTCACTTATTTAAA
- cleaved RNA product abundance [1]: 0.282

Sequence: CGACATGTCCCGCTTCTTTCATTAATCCGTGAGCAACTGTTTTGATATATACATTTACCTTTTAAGAGGAGGAAT
- cleaved RNA product abundance [2]: 0.427

Sequence: ACAGACGAAGGAGCCGCAAAGAAGTTATTAAGGGGTGAATAATCCCTCAATATAAATACCTCTCACTTATTTAAA
- cleaved RNA product abundance [1]: 0.623

Sequence: ACAGACGAAGGAGCCGCAAAGAAGTTATTAAGGGATGAATAATCGCTCAATATAAATATCTCTCACTTATTTAAA
- cleaved RNA product abundance [3]: 0.101
- cleaved RNA product abundance [1]: 0.12
- cleaved RNA product abundance [4]: 0.0971

Sequence: ACAGACGAAGGAGCCGCAAATAAGTTATTAAGGGATGAATAATCGCTCAATATAAATATCTCTCACTTATTTAAA
- cleaved RNA product abundance [1]: 0.121
